The results in this text go back to US20260055155A1, “INCRETIN ANALOG AND USE THEREOF” (SHANGHAI MINWEI BIOTECHNOLOGY CO., LTD, priority 2023, published 2026).

The nature of series [1]: stability of polypeptide in serum (GIP activity read-out with CHOK1-GIPR cells). The format is in vitro ADME, cynomolgus monkey. The note with it: for Activity ratio (%, Relative to the sample at 0 h): 100 μg/ml in cynomolgus monkey serum, GIP activity. On the procedure: Polypeptide 1 (SEQ ID NO. 1), polypeptide 3 (SEQ ID NO. 3) and control LY3437943 were diluted to 100 μg/ml with cynomolgus monkey serum, divided into 3 pieces with 200 μl/piece, respectively. One sample was placed in a −80° C. refrigerator as a zero reference, and the other two samples were placed in a 37° C. incubator and moved into a −80° C. refrigerator after 24 hours and 72 hours respectively. […] The activity changes of different samples after being placed for different periods of time were compared.

For the next series, the target named is T1, GIP receptor (human) (UniProt P48546).
T1 sequence (looked up): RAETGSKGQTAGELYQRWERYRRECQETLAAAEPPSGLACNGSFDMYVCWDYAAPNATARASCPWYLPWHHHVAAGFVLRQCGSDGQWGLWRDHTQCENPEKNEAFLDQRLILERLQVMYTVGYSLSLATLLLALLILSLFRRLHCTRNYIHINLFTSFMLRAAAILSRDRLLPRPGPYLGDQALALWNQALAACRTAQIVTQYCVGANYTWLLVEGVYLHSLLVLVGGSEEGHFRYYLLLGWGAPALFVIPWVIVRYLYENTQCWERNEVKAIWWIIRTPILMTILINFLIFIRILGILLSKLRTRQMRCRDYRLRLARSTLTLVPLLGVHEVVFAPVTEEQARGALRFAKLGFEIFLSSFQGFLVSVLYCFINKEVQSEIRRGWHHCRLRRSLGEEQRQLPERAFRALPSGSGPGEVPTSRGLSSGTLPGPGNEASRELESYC
Kind of series: cell-based or functional assay.

The target in series [2] is human GLP-1 receptor (human) (UniProt P43220). In words: cell-based or functional assay.
For the next series, the target named is GCG receptor (UniProt P47871). Kind of series: cell-based or functional assay.

Entries after “also recorded” stand apart in the source; their conditions may differ. Numbered stars: 1 amine (or outer) side, 2 acyl side, 3 side chain; on linkers, the order of the positions; unused ones are H or OH. Square brackets hold non-standard residues; d marks the D form. Side chains are listed from the residue outwards. Peptide text beside a SMILES is read from it. * marks the point of attachment. C20 diacid = O=C(O)CCCCCCCCCCCCCCCCCCC(=O)*; γGlu = O=C(O)[C@H](CCC(=O)[*:2])N[*:1]; AEEA = NCCOCCOCC(=O)O; Aib = CC(C)(N)C(=O)O

On to `CC[C@H](C)[C@H](NC(=O)[C@H](CCCCNC(=O)COCCOCCNC(=O)CC[C@H](NC(=O)CCCCCCCCCCCCCCCCCCC(=O)O)C(=O)O)NC(=O)[C@H](CC(=O)O)NC(=O)[C@H](CC(C)C)NC(=O)[C@H](CC(C)C)NC(=O)[C@@H](NC(=O)[C@H](CO)NC(=O)[C@H](Cc1ccc(O)cc1)NC(=O)[C@H](CC(=O)O)NC(=O)[C@H](CO)NC(=O)[C@@H](NC(=O)[C@H](Cc1ccccc1)NC(=O)[C@@H](NC(=O)CNC(=O)[C@H](CCC(N)=O)NC(=O)C(C)(C)NC(=O)[C@@H](N)Cc1c[nH]cn1)[C@@H](C)O)[C@@H](C)O)[C@@H](C)CC)C(=O)N[C@@H](C)C(=O)N[C@@H](C)C(=O)N[C@@H](CCC(N)=O)C(=O)N[C@@H](C)C(=O)N[C@@H](Cc1ccccc1)C(=O)N[C@H](C(=O)N[C@@H](CCC(=O)O)C(=O)N[C@@H](Cc1c[nH]c2ccccc12)C(=O)N[C@@H](CC(C)C)C(=O)N[C@H](C(=O)N[C@@H](C)C(=O)NCC(=O)NCC(=O)N1CCC[C@H]1C(=O)N[C@@H](CO)C(=O)N[C@@H](CO)C(=O)NCC(=O)N[C@@H](C)C(=O)N1CCC[C@H]1C(=O)N1CCC[C@H]1C(=O)N1CCC[C@H]1C(=O)N[C@@H](CO)C(N)=O)[C@@H](C)CC)[C@@H](C)CC` [Polypeptide 1] (H-H[Aib]QGTFTSDYSILLDK([AEEA-γGlu-C20 diacid])IAAQAFIEWLIAGGPSSGAPPPS-NH2; N-terminus and C-terminus assumed), for which the “stability in serum (in words)” value in series [1] (cynomolgus monkey serum, 37° C.) is listed as “higher than that of polypeptide 3; also recorded: significantly improve polypeptide stability”. For the same compound, the entries for the “Activity ratio (%, Relative to the sample at 0 h)” value in series [1] (incubation time at 37° C. 0 h (zero reference)) and in series [1] (incubation time at 37° C. 72 h) were 100% and 67.13%, respectively.

On to “GIP (from UniProt P09681 52-93) (ligand)”, for which, in the series with GIP receptor (human), the EC50 (nmol/L), reporter gene in CHO-K1 cells came out at 0.059 nmol/L.

For the compound “GLP-1 (from UniProt P01275 92-128) (ligand)”, the EC50 (nmol/L), CRE-luciferase reporter in CHO-K1 cells in series [2] is 1.95 nmol/L.

In turn, LY3437943 (peptide) gave a Results of activity in human serum albumin system (GCGR) with GCG receptor of 26. The compound also showed a Results of activity in human serum albumin system (GIPR) in the series with GIP receptor (human) of 3.29. The compound also came in with a Results of activity in human serum albumin system (GLP-1R) in series [2] of 540.
